Measurements reported in US9745384B2, “Peptides useful for modulating histone demethylase function” (The Brigham and Women's Hospital, Inc., priority 2012, dated 2017).

Target: T1, LSD2 (Homo sapiens, UniProt Q8NB78)
T1 construct: 0.15 μM or 1.2 μM purified LSD2 (residues 51-822); His6 (cleaved yes); made in house; host or cells: Sf9 insect cells (baculovirus)
T1 sequence (Q8NB78 51-822): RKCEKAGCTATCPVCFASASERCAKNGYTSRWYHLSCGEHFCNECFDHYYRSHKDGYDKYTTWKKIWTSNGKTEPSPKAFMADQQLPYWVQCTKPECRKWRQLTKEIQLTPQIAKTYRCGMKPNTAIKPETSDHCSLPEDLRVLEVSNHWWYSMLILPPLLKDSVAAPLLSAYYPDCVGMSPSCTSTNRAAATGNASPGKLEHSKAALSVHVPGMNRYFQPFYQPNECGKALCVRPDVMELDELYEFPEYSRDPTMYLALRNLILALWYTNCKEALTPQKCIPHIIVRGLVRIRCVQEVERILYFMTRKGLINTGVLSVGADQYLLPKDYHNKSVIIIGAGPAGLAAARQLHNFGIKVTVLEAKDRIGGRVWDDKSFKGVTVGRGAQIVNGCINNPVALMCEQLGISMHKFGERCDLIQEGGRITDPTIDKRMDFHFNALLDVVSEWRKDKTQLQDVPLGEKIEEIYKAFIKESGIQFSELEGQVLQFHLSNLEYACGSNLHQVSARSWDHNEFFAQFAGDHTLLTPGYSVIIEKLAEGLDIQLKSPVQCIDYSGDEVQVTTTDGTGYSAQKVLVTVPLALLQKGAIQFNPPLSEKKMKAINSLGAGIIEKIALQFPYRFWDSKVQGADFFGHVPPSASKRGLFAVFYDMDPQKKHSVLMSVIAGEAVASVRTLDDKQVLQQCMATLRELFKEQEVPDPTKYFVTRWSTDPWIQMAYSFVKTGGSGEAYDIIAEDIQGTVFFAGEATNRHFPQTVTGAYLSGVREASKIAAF
Assay: H3K4me2 peptide demethylation assay (MALDI-TOF)
Format: biochemical
Conditions: shorter H3K4me2 peptide residues 1-15
Description: FIGS. 12A-12F depict analysis of LSD2 demethylation activity and mutational analysis. […] Demethylation products were analyzed by MALDI-TOF mass spectrometry. 0.15 μM LSD2 can efficiently demethylate the longer H3K4me2 peptide (1-21), but has no detectable activity on the shorter histone peptide (1-15), demethylation of which requires high concentration (1.2 μM) of LSD2. […] It indicates the importance of histone residue 16-21 to LSD2 enzymatic activity and NPAC cofactor activity, supporting our model that NPAC assists enzyme-substrate interactions by creating a new binding site for H3 L20 in the LSD2-NPAC complex. FIG. 12C depicts LSD2 demethylation and NPAC cofactor activity on longer H3K4me2 peptide (1-44). 2 μg H3K4me2 peptide (1-44) were incubated with 0.8 μg GST-LSD2 (1-822) and 2 μg wild-type or F217A full-length GST-NPAC proteins in 100 μl demethylation buffer (50 mM Tris-HCl pH 8.1, 1 mM NAD^+, 0.1 Unit formaldehyde dehydrogenase) at 30° C. for 2 hours. LSD2 alone can efficiently demethylate di-methyl H3K4 of the long peptides, converting large majority of the substrate to H3K4me1. Wild-type NPAC protein can efficiently stimulate LSD2 demethylation, producing unmethylated H3K4. F217A mutation impairs NPAC cofactor activity as expected, showing little stimulatory effect if any. To compare demethylation efficiency, 1.2 μg bio-H3K4me2 peptide (H3 residue 1-21, equal molar ratio to 2 ug H3K4me2 1-44 peptide in above assays) was demethylated by LSD2 under identical conditions (bottom panel). […] The cofactor activity of wild-type NPAC was readily detected under the same conditions. […] Importantly, the demethylation of nucleosomal H3K4me2 was much more efficient in the presence of wild-type NPAC under same conditions (comparing lane 3 verse 4, and 8 verse 9). It is noted that no obvious cofactor effect of F217A peptide or linker regions was detected in nucleosome and peptide demethylation assays (FIG. 6E and data not shown). FIG. 12F depicts Coomassie staining of NPAC proteins used in histone demethylase assays. FIG. 12F discloses “His6” as SEQ ID NO: 75.
Histone peptides are purchased from Millipore, or custom synthesized. The purity of all peptides are >95% as determined by HPLC and mass spectrometry. In vitro histone demethylase activity assays were performed as described (Shi et al., 2004). Briefly, purified LSD2 and NPAC derived peptides or proteins were incubated with 50 μM H3K4me2 peptides (residues 1-21) in 50 mM Tris-HCl, pH 8.5, 50 mM KCl, 5 mM MgCl2, 5% glycerol at 37° C. for 30 min. The products were desalted through a C18 Ziptip (Millipore) and analyzed on a MALDI-TOF micro MX mass spectrometer (ABI 4700, Applied Biosystems). The laser intensity was kept constant for all of the samples. All MS data were processed using Data Explorer 4.5 (Applied Biosystems). […]

B1: NPAC: full-length human NPAC/GLYR1 (protein ID: Q49A26), recombinant, LSD2 cofactor (protein)
chain: MAAVSLRLGDLVWGKLGRYPPWPGKIVNPPKDLKKPRGKKCFFVKFFGTEDHAWIKVEQLKPYHAHKEEMIKINKGKRFQQAVDAVEEFLRRAKGKDQTSSHNSSDDKNRRNSSEERSRPNSGDEKRKLSLSEGKVKKNMGEGKKRVSSGSSERGSKSPLKRAQEQSPRKRGRPPKDEKDLTIPESSTVKGMMAGPMAAFKWQPTASEPVKDADPHFHHFLLSQTEKPAVCYQAITKKLKICEEETGSTSIQAADSTAVNGSITPTDKKIGFLGLGLMGSGIVSNLLKMGHTVTVWNRTAEKCDLFIQEGARLGRTPAEVVSTCDITFACVSDPKAAKDLVLGPSGVLQGIRPGKCYVDMSTVDADTVTELAQVIVSRGGRFLEAPVSGNQQLSNDGMLVILAAGDRGLYEDCSSCFQAMGKTSFFLGEVGNAAKMMLIVNMVQGSFMATIAEGLTLAHVTGQSQQTLLDILNQGQLASIFLDQKCQNILQGNFKPDFYLKYIQKDLRLAIALGDAVNHPTPMAAAANEVYKRAKALDQSDNDMSAVYRAYIH
Question: For B1, which “Cofactor activity: stimulation of LSD2 demethylation of H3K4me2 peptide” value is on record?
Answer: Its value is “did not detect NPAC cofactor activity”.
